From the supplement of paper PMC9112550, “Optimization of the antimicrobial peptide Bac7 by deep mutational scanning” (BMC Biology, 2022)

System: Escherichia coli TOP10
Test: shrunken log2 fold change of peptide-encoding DNA abundance (4.5 h post-induction vs induction); higher = less antimicrobial activity (less host growth inhibition)
Conditions: time post-induction: 4.5 h; library: site-saturation at positions 5, 18, 19, 20
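Further: peptides expressed intracellularly from a pBAD plasmid library in pooled LB shake-flask culture, induced with 0.3% L-arabinose, DNA abundance read by NGS, three biological replicates, DESeq2 with apeglm shrinkage.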

Sequence	shrunken log2 fold change
RRIRARPPRLPRPRPRPWGPPRP	-0.119
RRIRARPPRLPRPRPRPWHGPRP	0.0697
RRIRARPPRLPRPRPRPWKMPRP	-0.235
RRIRARPPRLPRPRPRPWKPPRP	4.26e-05
RRIRARPPRLPRPRPRPWLCPRP	0.116
RRIRARPPRLPRPRPRPWLHPRP	0.144
RRIRARPPRLPRPRPRPWLQPRP	-0.0599
RRIRARPPRLPRPRPRPWMTPRP	-0.141
RRIRARPPRLPRPRPRPWNCPRP	0.132
RRIRARPPRLPRPRPRPWNLPRP	-0.0204
RRIRARPPRLPRPRPRPWNNPRP	-1.02
RRIRARPPRLPRPRPRPWNVPRP	-0.181
RRIRARPPRLPRPRPRPWPFPRP	-0.0236
RRIRARPPRLPRPRPRPWPGPRP	0.266
RRIRARPPRLPRPRPRPWPPPRP	0.887
RRIRARPPRLPRPRPRPWQFPRP	0.456
RRIRARPPRLPRPRPRPWRFPRP	0.323
RRIRARPPRLPRPRPRPWTLPRP	-0.256
RRIRARPPRLPRPRPRPWTNPRP	0.124
RRIRARPPRLPRPRPRPWVIPRP	-0.296

Sequence	shrunken log2 fold change
RRIRARPPRLPRPRPRPYANPRP	-0.165
RRIRARPPRLPRPRPRPYDYPRP	-0.282
RRIRARPPRLPRPRPRPYENPRP	-0.0975
RRIRARPPRLPRPRPRPYEQPRP	0.0674
RRIRARPPRLPRPRPRPYFLPRP	-0.557
RRIRARPPRLPRPRPRPYGRPRP	0.0766
RRIRARPPRLPRPRPRPYGVPRP	-0.12
RRIRARPPRLPRPRPRPYHCPRP	-0.0366
RRIRARPPRLPRPRPRPYHFPRP	-0.186
RRIRARPPRLPRPRPRPYHPPRP	-0.482
RRIRARPPRLPRPRPRPYKNPRP	-0.524
RRIRARPPRLPRPRPRPYLMPRP	-0.648
RRIRARPPRLPRPRPRPYLNPRP	-0.914
RRIRARPPRLPRPRPRPYLTPRP	-0.655
RRIRARPPRLPRPRPRPYMPPRP	-0.829
RRIRARPPRLPRPRPRPYPNPRP	-0.257
RRIRARPPRLPRPRPRPYQQPRP	-0.316
RRIRARPPRLPRPRPRPYSWPRP	-0.0849
RRIRCRPPRLPRPRPRPAAAPRP	0.528
RRIRCRPPRLPRPRPRPAANPRP	0.0789

Sequence	shrunken log2 fold change
RRIRCRPPRLPRPRPRPAATPRP	0.776
RRIRCRPPRLPRPRPRPAAWPRP	0.252
RRIRCRPPRLPRPRPRPAEAPRP	0.12
RRIRCRPPRLPRPRPRPAFCPRP	0.172
RRIRCRPPRLPRPRPRPAGLPRP	0.206
RRIRCRPPRLPRPRPRPAGNPRP	0.0404
RRIRCRPPRLPRPRPRPAHWPRP	0.337
RRIRCRPPRLPRPRPRPAIGPRP	-0.135
RRIRCRPPRLPRPRPRPAKMPRP	0.104
RRIRCRPPRLPRPRPRPALVPRP	0.281
RRIRCRPPRLPRPRPRPALWPRP	0.621
RRIRCRPPRLPRPRPRPALYPRP	-0.0755
RRIRCRPPRLPRPRPRPAMVPRP	0.204
RRIRCRPPRLPRPRPRPAMYPRP	-0.265
RRIRCRPPRLPRPRPRPAPDPRP	0.576
RRIRCRPPRLPRPRPRPAQKPRP	-0.118
RRIRCRPPRLPRPRPRPAQRPRP	0.613
RRIRCRPPRLPRPRPRPARDPRP	1.84
RRIRCRPPRLPRPRPRPARYPRP	-0.438
RRIRCRPPRLPRPRPRPATFPRP	-0.331
